Source: publication PMC7950211 (2021)

Legend:
Test in all cases: SPR
[1] = target: T1, PF3D7_0721100, P. falciparum predicted secreted protein, recombinant (P. falciparum, biotin (enzymatic monobiotinylation))
T1 chain: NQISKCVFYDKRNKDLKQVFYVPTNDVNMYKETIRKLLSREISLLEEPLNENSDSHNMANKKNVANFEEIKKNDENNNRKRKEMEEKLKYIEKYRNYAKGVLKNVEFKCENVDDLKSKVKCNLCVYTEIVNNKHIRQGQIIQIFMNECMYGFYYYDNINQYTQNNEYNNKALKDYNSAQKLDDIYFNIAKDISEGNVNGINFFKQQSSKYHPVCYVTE

[2] = target: T2, parasite-infected erythrocyte surface protein 15 (PIESP15), P. falciparum, recombinant ectodomain (P. falciparum, biotin (enzymatic monobiotinylation of the bait form))
T2 chain: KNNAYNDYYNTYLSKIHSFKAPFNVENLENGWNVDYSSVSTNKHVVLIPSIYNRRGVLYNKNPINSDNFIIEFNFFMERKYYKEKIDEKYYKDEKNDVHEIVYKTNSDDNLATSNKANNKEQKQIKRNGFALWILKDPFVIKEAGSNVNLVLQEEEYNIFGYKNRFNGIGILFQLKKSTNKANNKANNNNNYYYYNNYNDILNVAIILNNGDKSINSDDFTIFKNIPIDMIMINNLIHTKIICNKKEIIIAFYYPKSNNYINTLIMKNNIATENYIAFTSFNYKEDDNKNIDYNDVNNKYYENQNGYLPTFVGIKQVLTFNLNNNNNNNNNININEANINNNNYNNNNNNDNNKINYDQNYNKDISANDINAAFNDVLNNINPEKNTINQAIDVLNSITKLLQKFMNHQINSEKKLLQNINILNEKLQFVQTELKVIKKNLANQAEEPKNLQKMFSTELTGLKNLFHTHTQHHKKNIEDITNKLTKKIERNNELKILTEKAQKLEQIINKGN

[3] = target: T3, PF3D7_0526900, P. falciparum p24 family protein, recombinant ectodomain (P. falciparum, biotin (enzymatic monobiotinylation of the bait form))
T3 chain: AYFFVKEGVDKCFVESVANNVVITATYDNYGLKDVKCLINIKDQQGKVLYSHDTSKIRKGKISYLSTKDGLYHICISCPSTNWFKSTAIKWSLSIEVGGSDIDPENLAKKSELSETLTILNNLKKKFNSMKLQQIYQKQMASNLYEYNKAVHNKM

B1: CelTOS, P. falciparum, recombinant (natural protein)
chain: FRGNNGHNSASSLYNGAQFIEQLNNAFTSAFLESQSMNKIGDDLAETISNELVSVLQKNSPTFLESSFDIKSEVKKHAKSMLKELIKVGLPSFENLVAENVKPPKVDPATYGIIVPVLTSLFNKVETAVGAKVSDEIWNYNSPDVSESEESLSDDFFD
modifications: biotin (enzymatic monobiotinylation of the bait form)
Q: With B1 as the binder, how does the koff [1] read?
A: The koff was 0.025 s⁻¹.

B2: PF3D7_0702900, P. falciparum secreted protein with tandem EF-hand domains, recombinant (natural protein)
chain: QDNKNKVEETHEEQGEMTQEEKDEIYSEFVDYDLNKDGLIDAEEIVVTLKNMKKADFINFFNKVDLDSSGTISIDEYMLFINSN
modifications: biotin (enzymatic monobiotinylation of the bait form)
Q: With B2 as the binder, how does the koff [2] read?
A: The koff was 0.035 s⁻¹.

B3: PF3D7_0422100, P. falciparum p24 family protein, recombinant ectodomain (domain or fragment)
chain: NFVLSNANTNNVNKNGANKKNNANNNNMNKAGDKKKATKGKKGNANDNVNEFNFNFNDLLNEINNAATNDNNNNNNDNNNDNNNNNNNNNNNYNGKNEINENNFNEEYNKLEKNFQMNAEDDDNNRGDINMDQFNEKKNNLNEDNNKMKPNANDYQYNENDADTDSEEDLTNIWNKNMQNFEPSTLLTFEIPSNSEEYLFEEVPEVNTYFRGVFYSNNEADDNIIEFLISDPDGQVIYKKEASEGIFYFYTKKVGIYTLTLKNNKWMGKKLTTVALGLGENPSLRSDHVKDFTNYIQRIVAETKKLKNEIKYLSSKHMRHIEKMKKITNK
modifications: biotin (enzymatic monobiotinylation of the bait form)
Q: B3 was tested. Which koff [3] did it give?
A: The koff was 0.23 s⁻¹.
